The record followed here is paper PMC4654935.

Assay [1] deals with Rab8A S111A (recombinant) (human) (UniProt P61006).
For assay [2], the target named is Rab8A wild-type (recombinant) (human) (UniProt P61006).
Assay [3] deals with Rab8A S111E (recombinant) (human) (UniProt P61006).

B1: Rabin8(153-237) (domain or fragment)
chain: VREKGYERLKEELAKAQRELKLKDEECERLSKVRDQLGQELEELTASLFEEAHKMVREANIKQATAEKQLKEAQGKIDVLQAEVA
As to B1, the values for the k cat/K M of Rabin8-catalysed mantGDP release from Rab8A (1 uM Rab, 100 uM GDP, 0.5 uM Rabin8, 25°C) in assay [1], in assay [2] and in assay [3] were 87000 M⁻¹ s⁻¹, 100000 M⁻¹ s⁻¹ and 7600 M⁻¹ s⁻¹, respectively.
